Patent publication US20240376204A1 (JIANGSU HENGRUI PHARMACEUTICALS, published 2024)

T1: his-tagged human PVRIG (h-PVRIG-his) recombinant protein (human, UniProt Q6DKI7 41-171, limits assumed)
T1 construct: Acrobiosystems; also called Human PVRIG-his; human PVRIG recombinant protein; not shown: his tag
T1 sequence (looked up): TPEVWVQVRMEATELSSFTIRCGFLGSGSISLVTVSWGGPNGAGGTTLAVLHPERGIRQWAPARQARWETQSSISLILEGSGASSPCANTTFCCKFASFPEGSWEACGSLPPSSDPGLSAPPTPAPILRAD

T2: human TIGIT recombinant protein (human, UniProt Q495A1 22-141)
T2 construct: also called human TIGIT antigen (AcroBiosystem, TIT-H52H3); TIGIT protein
T2 sequence (looked up): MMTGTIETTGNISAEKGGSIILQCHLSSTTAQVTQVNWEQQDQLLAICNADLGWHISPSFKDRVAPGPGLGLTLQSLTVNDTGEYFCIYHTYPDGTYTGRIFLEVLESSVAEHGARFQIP

T3: human PVRIG expressed on cells (human, UniProt Q6DKI7 41-326)
T3 construct: whole, on cells; also called HEK293 cells expressing human PVRIG; cells overexpressing human PVRIG
T3 sequence (looked up): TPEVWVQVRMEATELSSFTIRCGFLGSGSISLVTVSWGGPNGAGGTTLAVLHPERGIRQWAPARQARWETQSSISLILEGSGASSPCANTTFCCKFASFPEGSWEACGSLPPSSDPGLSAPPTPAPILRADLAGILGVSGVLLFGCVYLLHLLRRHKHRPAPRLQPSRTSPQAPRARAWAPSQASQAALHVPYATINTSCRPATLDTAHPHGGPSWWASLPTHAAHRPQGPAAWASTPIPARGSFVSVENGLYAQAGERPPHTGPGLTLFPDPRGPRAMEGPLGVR


Assays:
[1] = target: T4, human PD-1 expressed on cells (human, UniProt Q15116 25-288); experiment: cell-based or functional assay
T4 sequence (Q15116 25-288 limits assumed): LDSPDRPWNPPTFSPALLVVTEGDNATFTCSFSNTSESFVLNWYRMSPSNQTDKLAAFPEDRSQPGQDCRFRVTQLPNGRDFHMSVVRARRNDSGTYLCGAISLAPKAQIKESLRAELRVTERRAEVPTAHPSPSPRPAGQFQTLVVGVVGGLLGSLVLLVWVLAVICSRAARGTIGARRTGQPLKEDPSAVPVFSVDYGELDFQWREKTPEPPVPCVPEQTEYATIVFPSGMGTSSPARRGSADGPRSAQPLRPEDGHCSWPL

[2] = target: T1, his-tagged human PVRIG (h-PVRIG-his) …; experiment: ELISA, plate coated with PVRIG protein (his tag)
Experimental: (§1) ELISA assays were performed. TIGIT or PVRIG protein (his tag, Acrobiosystems, PVG-H52H4) was dissolved in PBS to 1 μg/mL, and the solution was added to a 96-well plate at 100 μL/well. The plate was coated with the antigen overnight at 4° C. The plate was washed with PBST solution three times. PBST/1% BSA solution was added, and the plate was incubated at 37° C. for 1 h for blocking. After three washes with PBST solution, different concentrations of the trispecific antibodies (diluted with PBST/1% BSA solution) were added, and the plate was incubated at 37° C. for 1.5 h. The plate was washed with PBST solution three times. […] After three washes with PBST solution, TMB solution was added at 100 μL/well. After 5 min of reaction at room temperature, 50 μL of stop solution was added. OD450 values were measured using a microplate reader, and EC₅₀ was calculated.

[3] = target: T4, human PD-1 expressed on cells; experiment: cell-based or functional assay; remark: listed apart in the source
[4] = target: T2, human TIGIT recombinant protein; experiment: ELISA, plate coated with TIGIT protein
Experimental: as §1

[5] = target: T4, human PD-1 expressed on cells; experiment: cell-based or functional assay; remark: listed apart in the source
[6] = target: T3, human PVRIG expressed on cells; experiment: FACS, HEK293F cells expressing human PVRIG
Experimental: A stably transfected HEK293F cell strain expressing the human PVRIG gene, a stably transfected CHO-K1 cell strain expressing the human TIGIT gene, and Jurkat cells expressing human PD-1 were used. The cell strain was inoculated into a 96-well plate at 2×10⁵ cells/well. The plate was centrifuged at 300 g for 5 min, and the supernatant was removed. 100 μL of test antibody was added, and the plate was incubated at 4° C. for 1 h. The plate was centrifuged, and the supernatant was removed. The plate was washed 3 times with 200 μL of wash buffer (PBS+2% FBS), and 100 μL of an Alexa Fluor 488-labeled anti-human IgG secondary antibody (Invitrogen, A-11013) diluted at 1:500 was added. The plate was incubated at 4° C. for 1 h. The plate was centrifuged, and the supernatant was removed. The plate was washed 3 times with 200 μL of wash buffer (PBS+2% FBS). The cells were resuspended in 100 μL of PBS and tested on a flow cytometer (BD FACS Calibur or BD FACS Canto_ II).

[7] = target: T3, human PVRIG expressed on cells; experiment: cell-based or functional assay

| EC50 [2] | DC:T MLR result, 0.1 nM antibody (unit not given) [3] | DC:T MLR result, 1 nM antibody (unit not given) [3] | DC:T MLR result, 10 nM antibody (unit not given) [3] | DC:T MLR result, 100 nM antibody (unit not given) [3] | EC50 [4] | IC50, PD-1/PD-L1 NFAT reporter gene system [5] | EC50 [6] | EMAX [6] | Binder | also measured |
| --- | --- | --- | --- | --- | --- | --- | --- | --- | --- | --- |
| 0.154 nM | 108 | 97.8 | 136 | 148 |  |  |  |  | A17h1-1708-151H7-B (trispecific antibody, human IgG4 S228P, kappa) heavy: not shown light: EVQLQESGGGLVQPGGSLRLSCTASGLTFSDYSMSWYRQAPGKGRELVAIISGSGVIAHYVDSVKGRFTISRDNSKNTVYLQMRSLTPEDRAVYYCRAVSDWDDYWGQGTQVTVSSGGGGSGGGGSDIQMTQSPSSLSASVGDRVTITCRASENIYSYLAWYQQKPGKSPKLLIYNARTLAEGVPSRFSGSGSGTDFTLTISSLQPEDFATYYCQYHSGSPLPFGGGTKVEIKRTVAAPSVFIFPPSDEQLKSGTASVVCLLNNFYPREAKVQWKVDNALQSGNSQESVTEQDSKDSTYSLSSTLTLSKADYEKHKVYACEVTHQGLSSPVTKSFNRGEC | IC50 (read off the curve) [1]: ~0.4 nM |
| 0.0583 nM | 108 | 137 | 125 | 134 | 0.107 nM | 0.344 nM |  |  | A17h1-1708-30H2-B (trispecific antibody, human IgG4 S228P, kappa) heavy: not shown light: EVQLQESGGGLVQPGGSLRLSCTASGLTFSDYSMSWYRQAPGKGRELVAIISGSGVIAHYVDSVKGRFTISRDNSKNTVYLQMRSLTPEDRAVYYCRAVSDWDDYWGQGTQVTVSSGGGGSGGGGSDIQMTQSPSSLSASVGDRVTITCRASENIYSYLAWYQQKPGKSPKLLIYNARTLAEGVPSRFSGSGSGTDFTLTISSLQPEDFATYYCQYHSGSPLPFGGGTKVEIKRTVAAPSVFIFPPSDEQLKSGTASVVCLLNNFYPREAKVQWKVDNALQSGNSQESVTEQDSKDSTYSLSSTLTLSKADYEKHKVYACEVTHQGLSSPVTKSFNRGEC |  |
| 0.0589 nM | 118 | 118 | 124 | 128 | 0.0875 nM | 0.801 nM |  |  | A17h1-1708-30H2-A (trispecific antibody, human IgG4 S228P, kappa) heavy: not shown light: DIQMTQSPSSLSASVGDRVTITCRASENIYSYLAWYQQKPGKSPKLLIYNARTLAEGVPSRFSGSGSGTDFTLTISSLQPEDFATYYCQYHSGSPLPFGGGTKVEIKRTVAAPSVFIFPPSDEQLKSGTASVVCLLNNFYPREAKVQWKVDNALQSGNSQESVTEQDSKDSTYSLSSTLTLSKADYEKHKVYACEVTHQGLSSPVTKSFNRGEC |  |
|  |  |  |  |  |  |  | 0.105 nM | 1550 | A17m0902-1708-151H7-01-C (trispecific antibody, human IgG4 S228P, kappa, Type C; first residue of the 151H7 part changed from H to E; also called 151H7 H1E trispecific) heavy: not shown light: DIQMTQSPSSLSASVGDRVTITCRASENIYSYLAWYQQKPGKSPKLLIYNARTLAEGVPSRFSGSGSGTDFTLTISSLQPEDFATYYCQYHSGSPLPFGGGTKVEIKRTVAAPSVFIFPPSDEQLKSGTASVVCLLNNFYPREAKVQWKVDNALQSGNSQESVTEQDSKDSTYSLSSTLTLSKADYEKHKVYACEVTHQGLSSPVTKSFNRGEC |  |
| 0.0822 nM | 133 | 131 | 123 | 149 | 0.0951 nM | 0.264 nM |  |  | A17h1-1708-30H2-C (trispecific antibody, human IgG4 S228P, kappa, Type C) heavy: not shown light: DIQMTQSPSSLSASVGDRVTITCRASENIYSYLAWYQQKPGKSPKLLIYNARTLAEGVPSRFSGSGSGTDFTLTISSLQPEDFATYYCQYHSGSPLPFGGGTKVEIKRTVAAPSVFIFPPSDEQLKSGTASVVCLLNNFYPREAKVQWKVDNALQSGNSQESVTEQDSKDSTYSLSSTLTLSKADYEKHKVYACEVTHQGLSSPVTKSFNRGEC |  |
| 0.0846 nM |  |  |  |  | 0.116 nM |  |  |  | 1708-30H2 (bispecific antibody, human IgG4 S228P, kappa, Humanized anti-PVRIG/TIGIT) heavy: not shown light: DIQMTQSPSSLSASVGDRVTITCRASENIYSYLAWYQQKPGKSPKLLIYNARTLAEGVPSRFSGSGSGTDFTLTISSLQPEDFATYYCQYHSGSPLPFGGGTKVEIKRTVAAPSVFIFPPSDEQLKSGTASVVCLLNNFYPREAKVQWKVDNALQSGNSQESVTEQDSKDSTYSLSSTLTLSKADYEKHKVYACEVTHQGLSSPVTKSFNRGEC |  |
| 0.125 nM |  |  |  |  |  |  | 0.112 nM | 1360 | 1708-151H7 (bispecific antibody, human IgG4 S228P, kappa, Humanized anti-PVRIG/TIGIT) heavy: not shown light: DIQMTQSPSSLSASVGDRVTITCRASENIYSYLAWYQQKPGKSPKLLIYNARTLAEGVPSRFSGSGSGTDFTLTISSLQPEDFATYYCQYHSGSPLPFGGGTKVEIKRTVAAPSVFIFPPSDEQLKSGTASVVCLLNNFYPREAKVQWKVDNALQSGNSQESVTEQDSKDSTYSLSSTLTLSKADYEKHKVYACEVTHQGLSSPVTKSFNRGEC |  |
|  |  |  |  |  |  |  | 0.0964 nM | 1520 | A17m0902-1708-151H7-02-C (trispecific antibody, human IgG4 S228P, kappa, Type C; first residue of the 151H7 part changed from H to Q; also called 151H7 H1Q trispecific) heavy: not shown light: DIQMTQSPSSLSASVGDRVTITCRASENIYSYLAWYQQKPGKSPKLLIYNARTLAEGVPSRFSGSGSGTDFTLTISSLQPEDFATYYCQYHSGSPLPFGGGTKVEIKRTVAAPSVFIFPPSDEQLKSGTASVVCLLNNFYPREAKVQWKVDNALQSGNSQESVTEQDSKDSTYSLSSTLTLSKADYEKHKVYACEVTHQGLSSPVTKSFNRGEC |  |
|  |  |  |  |  |  |  | 0.0944 nM | 1520 | A17m0902-1708-151H7-C (trispecific antibody, human IgG4 S228P, kappa, Type C; also called A17m0902-151H7-C) heavy: not shown light: DIQMTQSPSSLSASVGDRVTITCRASENIYSYLAWYQQKPGKSPKLLIYNARTLAEGVPSRFSGSGSGTDFTLTISSLQPEDFATYYCQYHSGSPLPFGGGTKVEIKRTVAAPSVFIFPPSDEQLKSGTASVVCLLNNFYPREAKVQWKVDNALQSGNSQESVTEQDSKDSTYSLSSTLTLSKADYEKHKVYACEVTHQGLSSPVTKSFNRGEC |  |
|  |  |  |  |  |  |  |  |  | 30H2 (Fc fusion, not shown: a dimerising Fc or GST) EVQLVESGGGLVQPGGSLRLSCAASGFTFSGDCMGWFRQAPGKGLDEGVATIDNAGRIKYADSVKGRFTISRDNAKNSLYLQMNSLRAEDTAVYYCAAGWTFGGQCSPADWGQGTQVTVSS | PVRIG reporter gene cell activity EC50 [7]: 0.176 nM |
|  |  |  |  |  |  |  |  |  | 30H3 (Fc fusion, not shown: a dimerising Fc or GST) EVQLVESGGGLVQPGGSLRLSCAASGYSYSGDCMGWFRQAPGKGLDEGVATIDNAGRIKYADSVKGRFTISRDNAKNSLYLQMNSLRAEDTAVYYCAAGWTFGGQCSPADWGQGTQVTVSS | PVRIG reporter gene cell activity EC50 [7]: 0.078 nM |
|  |  |  |  |  |  |  |  |  | 151H7 (Fc fusion, not shown: a dimerising Fc or GST) HVQLVESGGGLVQPGGSLRLSCVASASGFTYRPYCMAWFRQAPGKEREAVAGIDIFGGTTYADSVKGRFTASRDNAGFSLYLQMNSLRAEDTAVYYCAAGDSPDGRCPPLGQGLNYWGQGTMVTVSS | PVRIG reporter gene cell activity EC50 [7]: 0.038 nM |
| 0.0885 nM | 115 | 116 | 122 | 136 | 0.113 nM | 0.825 nM |  |  | A17h1-1708-30H2-D (trispecific antibody, human IgG4 S228P, kappa) heavy: not shown light: DIQMTQSPSSLSASVGDRVTITCRASENIYSYLAWYQQKPGKSPKLLIYNARTLAEGVPSRFSGSGSGTDFTLTISSLQPEDFATYYCQYHSGSPLPFGGGTKVEIKRTVAAPSVFIFPPSDEQLKSGTASVVCLLNNFYPREAKVQWKVDNALQSGNSQESVTEQDSKDSTYSLSSTLTLSKADYEKHKVYACEVTHQGLSSPVTKSFNRGECGGGGSGGGGSEVQLQESGGGLVQPGGSLRLSCTASGLTFSDYSMSWYRQAPGKGRELVAIISGSGVIAHYVDSVKGRFTISRDNSKNTVYLQMRSLTPEDRAVYYCRAVSDWDDYWGQGTQVTVSS |  |
